Consider one protein from FireProtDB (doi:10.1021/bi00212a026).

For this data set the following is noted: Bacillus amyloliquefaciens; pH 6.3; 25 °C; Urea; Fluorescence; MES 50 mM; NaCl 0.15 M; reversible: yes; whole UniProt chain shown.

B1: Ribonuclease wild type, P00648 (protein)
chain: MMKMEGIALKKRLSWISVCLLVLVSAAGMLFSTAAKTETSSHKAHTEAQVINTFDGVADYLQTYHKLPDNYITKSEAQALGWVASKGNLADVAPGKSIGGDIFSNREGKLPGKSGRTWREADINYTSGFRNSDRILYSSDWLIYKTTDHYQTFTKIR
B1: the denaturant m value is 1.92 kcal/mol/M, the “denaturant midpoint (higher = more stable)” value amounted to 4.58 M and the unfolding free energy amounted to 8.79 kcal/mol.
